Experimental data taken from patent US20200315149.

Tests used:
[1] = target: recombinant human pro-HGF, P14210
[2] = target: T1, full-length coagulation factor XII purified from human plasma, P00748
T1 chain: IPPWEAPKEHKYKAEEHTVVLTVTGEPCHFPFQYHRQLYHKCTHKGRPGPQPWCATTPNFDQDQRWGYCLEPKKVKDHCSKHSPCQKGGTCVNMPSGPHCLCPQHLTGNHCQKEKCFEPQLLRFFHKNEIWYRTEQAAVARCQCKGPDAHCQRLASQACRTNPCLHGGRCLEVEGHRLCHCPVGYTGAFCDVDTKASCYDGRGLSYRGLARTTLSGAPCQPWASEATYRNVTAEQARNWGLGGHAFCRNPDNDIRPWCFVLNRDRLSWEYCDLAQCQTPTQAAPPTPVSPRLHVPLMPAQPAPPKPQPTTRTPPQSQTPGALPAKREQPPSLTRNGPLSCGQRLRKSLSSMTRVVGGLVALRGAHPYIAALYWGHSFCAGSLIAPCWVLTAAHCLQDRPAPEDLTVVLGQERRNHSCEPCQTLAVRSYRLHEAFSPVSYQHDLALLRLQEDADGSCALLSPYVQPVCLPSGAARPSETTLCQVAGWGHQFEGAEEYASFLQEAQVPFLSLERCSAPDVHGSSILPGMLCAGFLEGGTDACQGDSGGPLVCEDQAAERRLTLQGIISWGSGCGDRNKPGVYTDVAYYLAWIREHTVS

[3] = target: prekallikrein purified from human plasma, P03952
prekallikrein purified from human plasma, P03952, sequence (P03952 20-638): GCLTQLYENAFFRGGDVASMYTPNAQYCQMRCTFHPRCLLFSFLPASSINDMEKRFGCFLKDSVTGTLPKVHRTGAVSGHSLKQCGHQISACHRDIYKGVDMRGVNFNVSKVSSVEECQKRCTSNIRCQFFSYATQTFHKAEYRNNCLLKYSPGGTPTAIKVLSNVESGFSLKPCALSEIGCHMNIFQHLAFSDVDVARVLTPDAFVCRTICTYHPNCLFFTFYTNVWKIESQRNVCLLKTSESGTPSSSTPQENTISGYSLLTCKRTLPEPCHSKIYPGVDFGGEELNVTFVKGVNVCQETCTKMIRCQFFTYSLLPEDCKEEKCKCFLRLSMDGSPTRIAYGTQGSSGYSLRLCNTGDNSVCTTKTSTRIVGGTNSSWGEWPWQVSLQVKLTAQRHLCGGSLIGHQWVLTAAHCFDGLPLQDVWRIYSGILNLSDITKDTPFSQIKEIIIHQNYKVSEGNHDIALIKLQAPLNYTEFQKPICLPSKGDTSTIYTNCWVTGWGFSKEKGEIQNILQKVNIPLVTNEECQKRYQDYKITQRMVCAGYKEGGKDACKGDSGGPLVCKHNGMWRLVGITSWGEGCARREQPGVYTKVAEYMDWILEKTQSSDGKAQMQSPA

recombinant human pro-HGF, P14210, sequence (P14210 32-728): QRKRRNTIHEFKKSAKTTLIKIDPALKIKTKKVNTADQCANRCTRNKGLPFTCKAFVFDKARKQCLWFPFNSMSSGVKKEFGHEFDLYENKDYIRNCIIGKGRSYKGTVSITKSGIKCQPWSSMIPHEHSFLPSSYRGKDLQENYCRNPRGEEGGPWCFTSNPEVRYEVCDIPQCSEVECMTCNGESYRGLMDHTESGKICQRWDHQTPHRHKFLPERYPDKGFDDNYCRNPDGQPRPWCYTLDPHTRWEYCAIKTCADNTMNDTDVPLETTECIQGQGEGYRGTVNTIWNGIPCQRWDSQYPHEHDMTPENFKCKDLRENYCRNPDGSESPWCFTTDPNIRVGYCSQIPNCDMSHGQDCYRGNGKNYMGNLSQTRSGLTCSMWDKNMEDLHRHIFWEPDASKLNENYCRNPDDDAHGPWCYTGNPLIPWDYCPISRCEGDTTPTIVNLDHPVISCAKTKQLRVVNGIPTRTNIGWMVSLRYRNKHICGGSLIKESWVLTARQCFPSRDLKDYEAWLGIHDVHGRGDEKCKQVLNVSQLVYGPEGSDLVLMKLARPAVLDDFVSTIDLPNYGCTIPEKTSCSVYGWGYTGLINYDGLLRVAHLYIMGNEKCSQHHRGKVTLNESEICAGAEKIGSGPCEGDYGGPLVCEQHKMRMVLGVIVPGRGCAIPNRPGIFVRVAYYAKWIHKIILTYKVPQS

B1: recombinant human hepatocyte growth factor activator (protein)
chain: QPGGNRTESPEPNATATPAIPTILVTSVTSETPATSAPEAEGPQSGGLPPPPRAVPSSSSPQAQALTEDGRPCRFPFRYGGRMLHACTSEGSAHRKWCATTHNYDRDRAWGYCVEATPPPGGPAALDPCASGPCLNGGSCSNTQDPQSYHCSCPRAFTGKDCGTEKCFDETRYEYLEGGDRWARVRQGHVEQCECFGGRTWCEGTRHTACLSSPCLNGGTCHLIVATGTTVCACPPGFAGRLCNIEPDERCFLGNGTGYRGVASTSASGLSCLAWNSDLLYQELHVDSVGAAALLGLGPHAYCRNPDNDERPWCYVVKDSALSWEYCRLEACESLTRVQLSPDLLATLPEPASPGRQACGRRHKKRTFLRPRIIGGSSSLPGSHPWLAAIYIGDSFCAGSLVHTCWVVSAAHCFSHSPPRDSVSVVLGQHFFNRTTDVTQTFGIEKYIPYTLYSVFNPSDHDLVLIRLKKKGDRCATRSQFVQPICLPEPGSTFPAGHKCQIAGWGHLDENVSGYSSSLREALVPLVADHKCSSPEVYGADISPNMLCAGYFDCKSDACQGDSGGPLACEKNGVAYLYGIISWGDGCGRLHKPGVYTRVANYVDWINDRIRPPRRLVAPS
- cleavage of pro-HGF, western blot [1]: We confirmed the ability of hepatocyte growth factor activator (HGFA) and βFXIIa to cleave pro-HGF

B2: βFXIIa (protein)
chain: NGPLSCGQRLRKSLSSMTRVVGGLVALRGAHPYIAALYWGHSFCAGSLIAPCWVLTAAHCLQDRPAPEDLTVVLGQERRNHSCEPCQTLAVRSYRLHEAFSPVSYQHDLALLRLQEDADGSCALLSPYVQPVCLPSGAARPSETTLCQVAGWGHQFEGAEEYASFLQEAQVPFLSLERCSAPDVHGSSILPGMLCAGFLEGGTDACQGDSGGPLVCEDQAAERRLTLQGIISWGSGCGDRNKPGVYTDVAYYLAWIREHTVS
- cleavage of pro-HGF, western blot [1]: We confirmed the ability of hepatocyte growth factor activator (HGFA) and βFXIIa to cleave pro-HGF

B3: kallikrein-activated FXII (protein)
chain: T1 chain
- cleavage of pro-HGF (25 ug/mL) by kallikrein-activated FXII (50 nM), western blot [1]: Pro-HGF was cleaved by kallikrein-activated FXII297-596 and kallikrein-activated FXII (arrows), but not by inactivated kallikrein alone

B4: cathepsin K (protein)
chain: APDSVDYRKKGYVTPVKNQGQCGSCWAFSSVGALEGQLKKKTGKLLNLSPQNLVDCVSENDGCGGGYMTNAFQYVQKNRGIDSEDAYPYVGQEESCMYNPTGKAAKCRGYREIPEGNEKALKRAVARVGPVSVAIDASLTSFQFYSKGVYYDESCNSDNLNHAVLAVGYGIQKGNKHWIIKNSWGENWGNKGYILMARNKNNACGIANLASFPKM
- cleavage of FXII (1.25 uM) by cathepsin K (100 nM), non-reducing SDS-PAGE with Coomassie staining [2]: incubation of full-length FXII with cathepsin K generated stable FXII fragments with sizes supporting cleavage between L296 and M297

B5: two-chain tissue plasminogen activator (protein)
chain: SYQVICRDEKTQMIYQQHQSWLRPVLRSNRVEYCWCNSGRAQCHSVPVKSCSEPRCFNGGTCQQALYFSDFVCQCPEGFAGKCCEIDTRATCYEDQGISYRGTWSTAESGAECTNWNSSALAQKPYSGRRPDAIRLGLGNHNYCRNPDRDSKPWCYVFKAGKYSSEFCSTPACSEGNSDCYFGNGSAYRGTHSLTESGASCLPWNSMILIGKVYTAQNPSAQALGLGKHNYCRNPDGDAKPWCHVLKNRRLTWEYCDVPSCSTCGLRQYSQPQFRIKGGLFADIASHPWQAAIFAKHRRSPGERFLCGGILISSCWILSAAHCFQERFPPHHLTVILGRTYRVVPGEEEQKFEVEKYIVHKEFDDDTYDNDIALLQLKSDSSRCAQESSVVRTVCLPPADLQLPDWTECELSGYGKHEALSPFYSERLKEAHVRLYPSSRCTSQHLLNRTVTDNMLCAGDTRSGGPQANLHDACQGDSGGPLVCLNDGRMTLVGIISWGLGCGQKDVPGVYTKVTNYLDWIRDNMRP
- cleavage of pro-HGF, western blot [1]: other serine proteases found in the brain such as thrombin and tissue plasminogen activator did not convert pro-HGF to HGF

B6: kallikrein-activated FXII297-596 (protein)
chain: MPAQPAPPKPQPTTRTPPQSQTPGALPAKREQPPSLTRNGPLSCGQRLRKSLSSMTRVVGGLVALRGAHPYIAALYWGHSFCAGSLIAPCWVLTAAHCLQDRPAPEDLTVVLGQERRNHSCEPCQTLAVRSYRLHEAFSPVSYQHDLALLRLQEDADGSCALLSPYVQPVCLPSGAARPSETTLCQVAGWGHQFEGAEEYASFLQEAQVPFLSLERCSAPDVHGSSILPGMLCAGFLEGGTDACQGDSGGPLVCEDQAAERRLTLQGIISWGSGCGDRNKPGVYTDVAYYLAWIREHTVS
- cleavage of pro-HGF (25 ug/mL) by activated FXII297-596 (225 nM), western blot with anti-HGF [1]: kallikrein-activated FXII297-596 cleaved pro-HGF to the active two-chain form
- cleavage of prekallikrein (200 nM) by activated FXII297-596 (225 nM), western blot for kallikrein heavy chain [3]: activated FXII297-596 converted prekallikrein to kallikrein as seen through the generation of kallikrein heavy chain

B7: recombinant human FXII297-596 (protein)
chain: B6 chain
- cleavage of prekallikrein, western blot [3]: no cleavage of prekallikrein was observed with non-activated FXII297-596
